Blank lines part the entries; values can stand above or below the binder they belong to.
Molecular target: CD28 (human, UniProt P10747 19-220)
Test: cell-based or functional assay

CD28, sequence (P10747 19-220): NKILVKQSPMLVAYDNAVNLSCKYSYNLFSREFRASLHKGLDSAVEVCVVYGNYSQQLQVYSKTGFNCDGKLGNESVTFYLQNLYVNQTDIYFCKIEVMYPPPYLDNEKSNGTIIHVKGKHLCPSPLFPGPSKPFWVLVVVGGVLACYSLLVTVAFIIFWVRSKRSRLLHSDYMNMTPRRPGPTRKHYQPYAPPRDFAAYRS

IL-2 secretion with CHO-B7 relative to anti-CD28 mAb, PMA-stimulated CD28+ T cells: ~45% | fold enhancement of proliferation of PMA-treated human CD28+ T cells by fixed COS-hB7 cells: 30 fold | fold increase in proliferation of PMA-treated human CD28+ T cells by fixed CHO-hB7 cells: 51 fold | proliferation by CHO-B7 relative to anti-CD28 mAb: ~28 % less
B1: human B7 B cell activation antigen (ligand)
chain: VIHVTKEVKEVATLSCGHNVSVEELAQTRIYWQKEKKMVLTMMSGDMNIWPEYKNRTIFDITNNLSIVILALRPSDEGTYECVVLKYEKDAFKREHLAEVTLSVKADFPTPSISDFEIPTSNIRRIICSTSGGFPEPHLSWLENGEELNAINTTVSQDPETELYAVSSKLDFNMTTNHSFMCLIKYGHLRVNQTFNWNTTKQEHFPDNLLPSWAITLISVNGIFVICCLTYCFAPRCRERRRNERLRRESVRPV

fold enhancement of proliferation of PMA-treated human CD28+ T cells by fixed COS-mB7 cells: 29 fold
B2: murine B7 (ligand)
chain: VDEQLSKSVKDKVLLPCRYNSPHEDESEDRIYWQKHDKVVLSVIAGKLKVWPEYKNRTLYDNTTYSLIILGLVLSDRGTYSCVVQKKERGTYGVKHLALVKLSIKADFSTPNITESGNPSADTKRITCFASGGFPKPRFSWLENGRELPGINTTISQDPESELYTISSQLDFNTTRNHTIKCLIKYGDAHVSEDFTWEKPPEDPPDSKNTLVLFGAGFGAVITVVVIVVIIKCFCKHRSCFRRNEASRETNNSLTFGPEEALAEQTVFL

Reference: patent US6653444 (Dana-Farber, dated 2003)
